Holding throughout (type): cell-based, human
For assay [1], the system named is HT29 cells, Fn14 gene expression. As to the kind of experiment: Fn14 gene expression with TWEAK, HT29 (RT-PCR). To be noted: HT29, TWEAK 25 ng/ml. On the procedure:
(§1) Figure 1 Characterization TWEAK-dependent/not dependent cells. (A) Representative images of Fn14 expression (pink) in BRV5, 435-P and HT29 cells labelled by immunofluorescence. The protein has similar expression in BRV5 and the positive control HT29 cells, and less expressed in 435-P. DAPI (blue) was used for nucleus identification. (B) RT-PCR analysis to quantify Fn14 gene expression of cells cultured in the presence (dark green) or absence (light green) of TWEAK (25 ng/mL) at 48 h. Up-regulation of Fn14 is observed only in HT29 and BRV5 cells. Bars and error bars represent the average and standard deviation as calculated from three replicates respectively. P values represented as: * - significant (Pvalue: 0.01 to 0.05) and **- very-significant (Pvalue: 0.001 to 0.01).
(§2) Since the transcriptional activation of Fn14 expression can be induced in cancer cells by the TWEAK-Fn14 interaction, either in a paracrine or autocrine manner, we investigated whether TWEAK transactivates Fn14 (TNFR2F12A) in BRV5 brain metastatic cells. We primed cells with TWEAK and analysed TNFR2F12A gene expression including in the analysis 435-Br1 cells, the first generation of brain metastatic cells BRV5.
Three different cell lines were used in this study: BRV5, MDA-MB 435 (435-P), and HT29. The BRV5 is a highly metastatic brain cell line, obtained in one of our laboratories by primary culture from a brain of a nude mouse inoculated with human 435-Br1 brain metastatic cells, as previously described and used as a model to test the peptides in cell cultures. […] The triple negative 435-P cell line is a useful human breast cancer model that expresses both epithelial and melanocytic markers, and was included as the parental cell from which 435-Br1 metastatic variant was initially originated (both cell lines kindly provided by Dr Fabra at IDIBELL Institute, Hospitalet de Llobregat, Spain). […]

Assay [2] relates to 435-P cells, TNFR2F12A gene expression. As to the kind of experiment: Fn14 gene expression with TWEAK, 435-P (RT-PCR). To be noted: for Normalized level of expression of Fn14 gene: TWEAK 25 ng/ml. The procedure:
as §1, §2
(§3) Three different cell lines were used in this study: BRV5, MDA-MB 435 (435-P), and HT29. The BRV5 is a highly metastatic brain cell line, obtained in one of our laboratories by primary culture from a brain of a nude mouse inoculated with human 435-Br1 brain metastatic cells, as previously described and used as a model to test the peptides in cell cultures. […] The triple negative 435-P cell line is a useful human breast cancer model that expresses both epithelial and melanocytic markers, and was included as the parental cell from which 435-Br1 metastatic variant was initially originated (both cell lines kindly provided by Dr Fabra at IDIBELL Institute, Hospitalet de Llobregat, Spain). Finally, HT29 human colon carcinoma cells obtained from the European Type Culture Collection (ECACC 91072201) were used as a positive control of TWEAK dependent Fn14 over-expressing cells to evaluate TWEAK-Fn14 axis of brain metastatic variants.

Assay [3] has as its system 435-Br1 cells, TNFR2F12A gene expression. As to the kind of experiment: Fn14 gene expression with TWEAK, 435-Br1 (RT-PCR). To be noted: for Normalized level of expression of Fn14 gene: 435-Br1, TWEAK 25 ng/ml. The procedure:
as §1, §2, §3

Assay [4] concerns BRV5 cells, Fn14 gene expression. As to the kind of experiment: Fn14 gene expression with TWEAK, BRV5 (RT-PCR). To be noted: for Normalized level of expression of Fn14 gene: BRV5, TWEAK 25 ng/ml. The procedure: as §1, §2, §3

The results in this text go back to article PMC7866087, “Evaluation of Computationally Designed Peptides against TWEAK, a Cytokine of the Tumour Necrosis Factor Ligand Family” (International Journal of Molecular Sciences, 2021).

B1: tumour necrosis factor-like weak inducer of apoptosis (protein, UniProt O43508 94-249, looked up)
Tumor necrosis factor ligand …: SAPKGRKTRARRAIAAHYEVHPRPGQDGAQAGVDGTVSGWEEARINSSSPLRYNRQIGEFIVTRAGLYYLYCQVHFDEGKAVYLKLDLLVDGVLALRCLEEFSATAASSLGPQLRLCQVSGLLALRPGSSLRIRTLPWAHLKAAPFLTYFGLFQVH
With B1, the “Normalized level of expression of Fn14 gene” value in assay [1] (technical replicate 1) was 0.1964; in assay [1] (technical replicate 2), 0.2154; in assay [1] (technical replicate 3), 0.2052; in assay [2] (technical replicate 1), 0.1395; in assay [2] (technical replicate 2), 0.1292; in assay [2] (technical replicate 3), 0.1408. For the same molecule, the “Normalized level of expression of Fn14 gene” value was 0.1600 in assay [3] (technical replicate 1); 0.1676 in assay [3] (technical replicate 2); 0.1719 in assay [3] (technical replicate 3); 0.1340 in assay [4] (technical replicate 1); 0.1202 in assay [4] (technical replicate 2); 0.1441 in assay [4] (technical replicate 3). Further, the TNFR2F12A gene expression entry in assay [2] (TWEAK 25 ng/mL, 48 h) is listed as “decreased TNFR2F12A gene expression in 435-P cells with regard to controls (p = 0.0246)”; in assay [3] (TWEAK 25 ng/mL, 48 h, 435-Br1), “no differences were found”. Besides, in assay [4] (TWEAK 25 ng/mL, 48 h, BRV5), the Fn14 transcriptional expression entry was “significantly activated in BRV5 cells (p = 0.0031)”.
